Assay [1] concerns the target T1, EBOV soluble GP (sGP) (Ebola virus (EBOV), UniProt P60170 33-324).
T1 sequence: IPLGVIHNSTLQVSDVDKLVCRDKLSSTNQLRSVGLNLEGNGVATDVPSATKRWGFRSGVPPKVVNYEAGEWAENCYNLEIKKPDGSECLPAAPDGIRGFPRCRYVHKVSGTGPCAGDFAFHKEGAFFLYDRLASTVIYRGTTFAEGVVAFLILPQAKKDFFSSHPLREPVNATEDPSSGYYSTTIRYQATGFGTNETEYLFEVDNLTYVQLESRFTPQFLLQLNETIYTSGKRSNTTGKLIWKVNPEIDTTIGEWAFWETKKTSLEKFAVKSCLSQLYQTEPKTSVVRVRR
In words: ELISA. On the technique in general: An ELISA detects its analyte on a solid surface through an enzyme-linked reagent.

Assay [2] concerns the target T2, MARV (Musoke strain) GP (Marburg virus (MARV), Musoke strain, UniProt P35253 19-648).
T2 sequence: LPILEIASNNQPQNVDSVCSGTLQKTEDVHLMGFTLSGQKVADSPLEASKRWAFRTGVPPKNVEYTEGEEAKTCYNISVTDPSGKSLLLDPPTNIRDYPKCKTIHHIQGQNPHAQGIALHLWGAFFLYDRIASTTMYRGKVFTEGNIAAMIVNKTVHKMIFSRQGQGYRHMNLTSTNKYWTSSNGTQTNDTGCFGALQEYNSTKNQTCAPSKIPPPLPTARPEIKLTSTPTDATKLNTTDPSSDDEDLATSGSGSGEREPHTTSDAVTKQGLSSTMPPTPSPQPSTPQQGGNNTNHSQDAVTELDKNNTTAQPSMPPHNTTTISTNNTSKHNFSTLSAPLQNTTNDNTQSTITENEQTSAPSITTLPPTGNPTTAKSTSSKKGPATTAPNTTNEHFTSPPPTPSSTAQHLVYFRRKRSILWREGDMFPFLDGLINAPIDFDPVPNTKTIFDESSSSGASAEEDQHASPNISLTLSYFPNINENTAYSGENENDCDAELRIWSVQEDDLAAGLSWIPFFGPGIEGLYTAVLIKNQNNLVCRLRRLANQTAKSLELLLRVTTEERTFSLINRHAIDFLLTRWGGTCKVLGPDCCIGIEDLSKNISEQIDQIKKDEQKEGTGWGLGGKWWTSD
The assay is described as follows: GP ELISA, purified mAb.

Assay [3] concerns the target T3, EBOV VLP (Ebola virus (EBOV), UniProt Q05320 33-676).
T3 sequence: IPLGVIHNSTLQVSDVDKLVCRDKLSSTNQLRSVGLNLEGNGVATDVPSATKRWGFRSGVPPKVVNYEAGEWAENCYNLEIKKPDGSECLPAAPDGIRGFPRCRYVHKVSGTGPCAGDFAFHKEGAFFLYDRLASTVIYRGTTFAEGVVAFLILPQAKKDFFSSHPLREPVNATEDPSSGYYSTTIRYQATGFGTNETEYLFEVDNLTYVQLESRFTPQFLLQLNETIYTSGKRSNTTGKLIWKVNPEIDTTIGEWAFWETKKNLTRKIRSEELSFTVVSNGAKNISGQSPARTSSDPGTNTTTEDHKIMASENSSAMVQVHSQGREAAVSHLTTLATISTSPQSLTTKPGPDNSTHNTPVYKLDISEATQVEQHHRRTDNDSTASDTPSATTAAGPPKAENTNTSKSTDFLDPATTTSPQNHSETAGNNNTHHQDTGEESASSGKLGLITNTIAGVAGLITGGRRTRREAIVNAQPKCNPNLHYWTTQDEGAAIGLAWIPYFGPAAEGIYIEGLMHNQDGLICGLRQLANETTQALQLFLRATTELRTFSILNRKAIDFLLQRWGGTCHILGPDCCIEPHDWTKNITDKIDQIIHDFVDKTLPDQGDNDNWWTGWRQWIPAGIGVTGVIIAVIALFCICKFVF
The assay is described as follows: ELISA.

Assay [4] concerns the target T4, SUDV VLP (Sudan virus (SUDV), UniProt Q66814 33-676).
T4 sequence: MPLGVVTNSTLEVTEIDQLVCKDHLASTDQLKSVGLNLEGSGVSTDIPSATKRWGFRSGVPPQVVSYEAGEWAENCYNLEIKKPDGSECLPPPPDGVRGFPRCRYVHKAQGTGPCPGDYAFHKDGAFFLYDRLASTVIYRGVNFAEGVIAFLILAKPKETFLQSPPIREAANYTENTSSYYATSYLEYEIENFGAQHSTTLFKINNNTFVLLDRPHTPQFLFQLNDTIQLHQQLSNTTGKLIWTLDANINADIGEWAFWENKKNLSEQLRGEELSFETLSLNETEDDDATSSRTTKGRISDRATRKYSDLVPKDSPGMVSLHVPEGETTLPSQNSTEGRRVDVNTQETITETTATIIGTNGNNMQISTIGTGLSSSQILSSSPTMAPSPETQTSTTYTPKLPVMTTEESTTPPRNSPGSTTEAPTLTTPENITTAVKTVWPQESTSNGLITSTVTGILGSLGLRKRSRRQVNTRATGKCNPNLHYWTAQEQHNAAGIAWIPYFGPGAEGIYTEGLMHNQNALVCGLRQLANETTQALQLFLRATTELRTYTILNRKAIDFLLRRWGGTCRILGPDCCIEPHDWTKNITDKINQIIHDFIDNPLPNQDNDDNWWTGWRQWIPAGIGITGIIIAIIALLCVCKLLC
The assay is described as follows: ELISA.

Assay [5] deals with T5, MARV VLP (Marburg virus (MARV), UniProt P35253 19-681).
T5 sequence: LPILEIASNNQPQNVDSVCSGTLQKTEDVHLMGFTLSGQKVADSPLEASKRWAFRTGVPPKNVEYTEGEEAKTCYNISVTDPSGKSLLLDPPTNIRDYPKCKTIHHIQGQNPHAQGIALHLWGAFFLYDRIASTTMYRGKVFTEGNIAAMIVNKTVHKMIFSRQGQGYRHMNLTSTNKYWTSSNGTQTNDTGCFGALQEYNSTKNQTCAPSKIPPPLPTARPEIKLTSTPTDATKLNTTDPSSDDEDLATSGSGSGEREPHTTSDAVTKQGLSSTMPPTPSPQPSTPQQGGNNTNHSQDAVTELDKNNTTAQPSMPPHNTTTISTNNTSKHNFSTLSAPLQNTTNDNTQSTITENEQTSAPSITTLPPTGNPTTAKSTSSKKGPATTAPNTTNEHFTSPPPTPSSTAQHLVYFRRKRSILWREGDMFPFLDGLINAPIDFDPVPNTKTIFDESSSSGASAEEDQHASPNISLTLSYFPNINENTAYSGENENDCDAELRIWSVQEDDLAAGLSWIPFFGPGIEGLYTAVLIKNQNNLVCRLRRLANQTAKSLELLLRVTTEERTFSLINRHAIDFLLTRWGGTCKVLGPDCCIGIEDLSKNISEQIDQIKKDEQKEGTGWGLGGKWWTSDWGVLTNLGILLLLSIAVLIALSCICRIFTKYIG
The assay is described as follows: ELISA.

Assay [6] has as its target T6, EBOV GPcl (Ebola virus (EBOV), UniProt Q05320 33-200; Q05320 502-632).
T6 sequence 1: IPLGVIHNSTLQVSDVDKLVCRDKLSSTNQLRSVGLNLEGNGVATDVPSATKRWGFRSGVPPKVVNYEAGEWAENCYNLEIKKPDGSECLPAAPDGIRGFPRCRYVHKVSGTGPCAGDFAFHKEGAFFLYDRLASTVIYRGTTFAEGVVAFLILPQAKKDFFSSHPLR
T6 sequence 2: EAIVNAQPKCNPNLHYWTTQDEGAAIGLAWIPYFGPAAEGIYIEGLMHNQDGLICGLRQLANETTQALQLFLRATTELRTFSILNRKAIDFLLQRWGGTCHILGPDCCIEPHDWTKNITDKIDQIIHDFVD
The assay is described as follows: ELISA.

Our source for the binding result and EC50 values is patent US20170334973A1 (INTEGRATED BIOTHERAPEUTICS, published 2017).

B1: FVM02P (antibody, V domains shown)
VH: EVQLVESGGGLVQPGGSLRLSCAASGFTGFTFSDYAFYWVRQAPGKGLEWVGFIRGKAYGGTADYAASVKGRFTISRDNSKNTAYLQMSSLKTEDSAVYYCTSQGVTVATPYHWGQGVLVTVSS
VL: DIVLTQSPLSLPVTPGEPASISCRSSQSLLHSGGKTYLYWYLQKPGQSPQLLIHEVSNRASGVPDRFSGSGSGTDFTLKISRVEAEDVGVYYCMQGIQLPLTFGGGTKVEIKR
On to B1, for which, in assay [1], the binding result is “no binding”. The EC50 is 1 µg/mL in assay [2], 0.489 nM in assay [3], 0.351 nM in assay [4] and 7.73 nM in assay [5].

B2: FVM09 (antibody, V domains shown)
VH: EVQLVQSGAEVKRPGESLTISCKTSGYSFTDSWVAWVRQMPGKGLEWLGSIYPGDSETKYNPSFQGHVTISADKSVTTTYLKWSSLKASDTATYYCVKGSETWGQGVLVTVSS
VL: QLVLTQPASLSASPGASASLTCTFSGGINVAGYNILWYQQKAGSPPRYLLRYKSDSTKDQGSGVPSRFSGSKDASANTGILRISGLQSEDEADYYCAIGHSSGWIFGGGTRLTVL
Take B2: the binding result in assay [6] and in assay [2] was “no binding” each time. The EC50 was found to be 24.2 nM in assay [3] and 21.3 nM in assay [4].

As a reminder, the EC50 is the midpoint of the concentration-response curve. A higher EC50 goes with a need for much substance.
